The text below walks through data of article PMC5737488.

pKd: −log10 of the molar value. “And” between values parts separate entries of the source, which are not always exact repeats. Equal values may be shown once.

Experiment [1] addresses E. coli RNA polymerase core enzyme (α2ββ′ω) (E. coli) (UniProt P0A7Z4). The experiment can be described thus: co-sedimentation.
Experiment [2] has as its target vacant E. coli 70S ribosome (lacking bound mRNA and tRNAs) (E. coli) (UniProt P0AG67). Nature of the experiment: co-sedimentation.

“vacant E. coli 70S ribosome (lacking bound mRNA and tRNAs) (from UniProt P0AG67;P0A7V0;P02358;P02359;P0A7X3;P0A7R9;P0A7L0;P0A7R1;P0A7K2;P0A7K6) (complex)”: the stoichiometry N (ribosome per RNA polymerase) in experiment [1] was found to be 1.

One may read the pKd as the Kd on a negative log10 scale, so that one unit is a factor of ten. In experiment [2], “E. coli RNA polymerase holoenzyme (core enzyme with bound sigma factor σ70) (from UniProt P0A7Z4;P0A8V2;P0A8T7;P0A800;P00579) (complex)” had a KD (fit assuming only monomeric holoenzyme) of 1200 nM, a pKd of 5.85 and a percent bound to the ribosome of 31%.

In experiment [2], “transcription elongation complex (core RNA polymerase with a bound DNA:RNA scaffold) (from UniProt P0A7Z4;P0A8V2;P0A8T7;P0A800)” showed a percent bound to the ribosome of 15%.

With “E. coli RNA polymerase core enzyme (α2ββ′ω) (from UniProt P0A7Z4;P0A8V2;P0A8T7;P0A800) (complex)”, in experiment [2], the pKd was 6.03; the percent bound to the ribosome worked out at 90%; the percent of RNA polymerase co-migrating with ribosomes came out at 80%; the stoichiometry N (RNA polymerase per ribosome) was 2 and 1.
